{"source": "patent US20110052582A1", "about": "(Hoffmann-La Roche, published 2011)", "molecular_target": "T1, Soluble CDCP1 extracellular domain (CDCP1-ECD) (SEQ ID NO:30) fused to Streptavidin Binding Protein (SBP) (human, UniProt Q9H5V8 30-663)", "T1 construct": "also called SBP-CDCP1-ECD", "T1 sequence": "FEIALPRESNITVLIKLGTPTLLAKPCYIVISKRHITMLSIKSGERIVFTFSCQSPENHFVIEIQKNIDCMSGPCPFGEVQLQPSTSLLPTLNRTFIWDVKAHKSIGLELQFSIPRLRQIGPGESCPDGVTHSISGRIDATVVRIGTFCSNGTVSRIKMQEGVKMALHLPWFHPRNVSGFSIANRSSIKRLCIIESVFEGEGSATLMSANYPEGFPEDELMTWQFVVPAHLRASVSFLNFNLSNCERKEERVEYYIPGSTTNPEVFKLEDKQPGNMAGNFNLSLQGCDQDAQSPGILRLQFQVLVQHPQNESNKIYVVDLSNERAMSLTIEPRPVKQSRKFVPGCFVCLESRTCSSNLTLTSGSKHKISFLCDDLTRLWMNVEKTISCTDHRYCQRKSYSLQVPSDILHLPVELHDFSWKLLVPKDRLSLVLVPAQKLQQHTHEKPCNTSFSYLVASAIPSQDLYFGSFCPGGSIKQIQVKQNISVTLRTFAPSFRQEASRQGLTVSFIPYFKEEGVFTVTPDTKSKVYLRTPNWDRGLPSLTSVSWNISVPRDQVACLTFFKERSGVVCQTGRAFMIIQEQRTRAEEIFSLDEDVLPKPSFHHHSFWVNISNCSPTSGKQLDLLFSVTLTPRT", "experiment": "ELISA on captured SBP-CDCP1-ECD, ratio relative to chimeric CUB4 (chHC4)", "procedure": "Soluble CDCP1 extracellular domain (CDCP1-ECD) (SEQ ID NO:30) fused to Streptavidin Binding Protein (SBP) was captured on a sreptavidine plate. To define optimal binding of the antibody to SBP-CDCP1-ECD, 384-well polystyrene plates (NUNC, streptavidin-coated) delivered by MicroCoat, Bernried, Germany (ID-No. 1734776-001) have been coated with pure and stepwise diluted HEK293 supernatant (in BSA/IMDM buffer: 100 mg/ml BSA Fraction V, Roche 10735078001, dissolved in Iscove's Modified Dulbeccos Medium). Using a calibration curve of mouse CUB4 antibodies the optimal dilution factor of the HEK293 supernatant in relation to the streptavidin binding capacity of the microtiter plate was identified. For the standard coating, SBP-CDCP1-ECD containing HEK293 supernatant was diluted (between 1:15 and 1:40) and incubated overnight at 2-8° C. (25 μl per well). Intensive washing of the microtiter plate is necessary to remove remaining unbound SBP-CDCP1-ECD.\nHumanized CUB4 antibodies and/or reference antibody (chimeric (chHC4) CUB4 antibody comprising human constant region and mouse VH and VL of SEQ ID NO:1 and 2) were tested either undiluted or using a 12-step-dilution. 12.5 μl per well of each sample was incubated for 90 min at room temperature. After intensive washing using PBS-T (0.1% Tween 20 in PBS) 25 μl of either goat anti-human IgG antibodies coupled with HRP (Jackson ImmunoResearch, Code No: 109-036-098, dilution 1:10000) for human antibodies were added and incubated for 1 hour. After intensive washing the binding of the antibodies was detected with ABTS tablets (Roche Diagnostics GmbH, Cat. No.: 1112422). Absorbance at 405 nm/492 nm was measured using a standard photometer.", "data": [{"binder": "hHC4-a / hLC4-e (antibody, V domains shown) VH: EVQLVESGGGLVKPGGSLRLSCAASGFTFNSYGMSWVRQAPGKGLEWVSTISSGGSYTYYPDSVKGRFTISRDNAKNSLYLQMNSLRAEDTAVYYCARHPDYDGVWFAYWGQGTLVTVSS VL: DIQMTQSPSSLSASVGDRVTITCSVSSSVFYVHWYQQKPGKAPKLLIYDTSKLASGVPSRFSGSGSGTDFTFTISSLQPEDIATYYCQQWNSNPPTFGGGTKVEIK", "values": [{"measurement": "relative binding ratio", "value": 0.46}]}, {"binder": "hHC4-03 / hLC4-f (antibody, V domains shown) VH: EVQLLESGGGLVQPGGSLRLSCAASGFTFNSYGMSWVRQAPGKGLEWVSAISSGGSYTYYPDSVKGRFTISRDNSKNTLYLQMNSLRAEDTAVYYCAKHPDYDGVWFAYWGQGTLVTVSS VL: DIQMTQSPSSLSASVGDRVTITCSVSSSVFYVHWYQQKPGKAPKLLIYDTSKLASGVPSRFSGSGSGTDYTFTISSLQPEDIATYYCQQWNSNPPTFGGGTKVEIK", "values": [{"measurement": "relative binding ratio", "value": 0.07}]}, {"binder": "hHC4-04 / hLC4-e (antibody, V domains shown) VH: EVQLLESGGGLVQPGGSLRLSCAASGFTFNSYGMSWVRQAPGKGLEWVSTISSGGSYTYYPDSVKGRFTISRDNSKNTLYLQMNSLRAEDTAVYYCARHPDYDGVWFAYWGQGTLVTVSS VL: DIQMTQSPSSLSASVGDRVTITCSVSSSVFYVHWYQQKPGKAPKLLIYDTSKLASGVPSRFSGSGSGTDFTFTISSLQPEDIATYYCQQWNSNPPTFGGGTKVEIK", "values": [{"measurement": "relative binding ratio", "value": 0.2}]}, {"binder": "hHC4-04 / hLC4-f (antibody, V domains shown) VH: EVQLLESGGGLVQPGGSLRLSCAASGFTFNSYGMSWVRQAPGKGLEWVSTISSGGSYTYYPDSVKGRFTISRDNSKNTLYLQMNSLRAEDTAVYYCARHPDYDGVWFAYWGQGTLVTVSS VL: DIQMTQSPSSLSASVGDRVTITCSVSSSVFYVHWYQQKPGKAPKLLIYDTSKLASGVPSRFSGSGSGTDYTFTISSLQPEDIATYYCQQWNSNPPTFGGGTKVEIK", "values": [{"measurement": "relative binding ratio", "value": 0.37}]}, {"binder": "hHC4-07 / hLC4-e (antibody, V domains shown) VH: EVQLLESGGGLVQPGGSLRLSCAASGFTFNSYAMSWVRQAPGKGLEWVSTISSGGSYTYYPDSVKGRFTISRDNSKNTLYLQMNSLRAEDTAVYYCAKHPDYDGVWFAYWGQGTLVTVSS VL: DIQMTQSPSSLSASVGDRVTITCSVSSSVFYVHWYQQKPGKAPKLLIYDTSKLASGVPSRFSGSGSGTDFTFTISSLQPEDIATYYCQQWNSNPPTFGGGTKVEIK", "values": [{"measurement": "relative binding ratio", "value": 0.07}]}, {"binder": "hHC4-07 / hLC4-f (antibody, V domains shown) VH: EVQLLESGGGLVQPGGSLRLSCAASGFTFNSYAMSWVRQAPGKGLEWVSTISSGGSYTYYPDSVKGRFTISRDNSKNTLYLQMNSLRAEDTAVYYCAKHPDYDGVWFAYWGQGTLVTVSS VL: DIQMTQSPSSLSASVGDRVTITCSVSSSVFYVHWYQQKPGKAPKLLIYDTSKLASGVPSRFSGSGSGTDYTFTISSLQPEDIATYYCQQWNSNPPTFGGGTKVEIK", "values": [{"measurement": "relative binding ratio", "value": 0.07}]}, {"binder": "hHC4-H / hLC4-f (antibody, V domains shown, also called Humanized CUB4 Antibody No. 146) VH: EVQLVESGGGLVQPGGSLRLSCAASGFTFNSYGMSWVRQAPGKGLEWVATISSGGSYKYYVDSVKGRFTISRDNAKNSLYLQMNSLRAEDTAVYYCARHPDYDGVWFAYWGQGTLVTVSS VL: DIQMTQSPSSLSASVGDRVTITCSVSSSVFYVHWYQQKPGKAPKLLIYDTSKLASGVPSRFSGSGSGTDYTFTISSLQPEDIATYYCQQWNSNPPTFGGGTKVEIK", "values": [{"measurement": "relative binding ratio", "value": 0.42}]}, {"binder": "hHC4-I / hLC4-e (antibody, V domains shown) VH: EVQLLESGGGLVQPGGSLRLSCAASGFTFNSYAMSWVRQAPGKGLEWVSAISSGGSYTYYADSVKGRFTISRDNSKNTLYLQMNSLRAEDTAVYYCAKHPDYDGVWFAYWGQGTLVTVSS VL: DIQMTQSPSSLSASVGDRVTITCSVSSSVFYVHWYQQKPGKAPKLLIYDTSKLASGVPSRFSGSGSGTDFTFTISSLQPEDIATYYCQQWNSNPPTFGGGTKVEIK", "values": [{"measurement": "relative binding ratio", "value": 0.07}]}]}
